B1: ADI-34139 (antibody, V domains shown)
VH: EVQLLESGGGLVQPGGSLRLSCAASGFTFSSYAMSWVRQAPGKGLEWVSTISGSGGSTYYADSVKGRFTISRDNSKNTLYLQMNSLRAEDTAVYYCARLGGRRGSGSSYYYYYGMDVWGQGTTVTVSS
VL: not shown
notes: anti-ID IgG
B2: ADI-34140 (antibody, V domains shown)
VH: B1 VH
VL: not shown
notes: anti-ID IgG

Experiments:
ADI-22523 Fab = target: T1, ADI-22523 Fab; test: BLI; tip anti-ID IgG, solution ADI-22523 Fab
T1 construct: anti-CD3 Fab by papain digestion of the IgG
Protocol: (§1) ForteBio affinity measurements were performed generally as previously described (Estep et al., MAbs. 2013 5(2):270-8). Briefly, ForteBio affinity measurements were performed by loading antibody IgG or Fabs on-line onto AHC sensors. Sensors were equilibrated off-line in assay buffer for 30 minutes and then monitored on-line for 60 seconds for baseline establishment. For avid binding measurement, sensors with loaded antibodies were exposed to IgG or Fab solutions for 3 minutes, afterwards they were transferred to assay buffer for 3 minutes for off-rate measurement. Kinetics data were fit using a 1:1 binding model in the data analysis software provided by ForteBio to obtain equilibrium dissociation constant (KD=koff/kₒₙ) values. In each column, tip-immobilized antibodies are listed first and solution antibodies second.

ADI-22523 IgG = target: T2, ADI-22523 IgG; test: BLI; tip anti-ID IgG, solution ADI-22523 IgG
T2 construct: anti-CD3 IgG
T2 sequence (VH, as listed by the source limits assumed, chain 1 of 2): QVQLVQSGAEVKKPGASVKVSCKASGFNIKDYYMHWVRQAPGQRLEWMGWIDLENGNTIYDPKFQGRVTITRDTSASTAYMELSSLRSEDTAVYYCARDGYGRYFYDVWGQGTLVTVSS
T2 sequence (VL, as listed by the source limits assumed, chain 2 of 2): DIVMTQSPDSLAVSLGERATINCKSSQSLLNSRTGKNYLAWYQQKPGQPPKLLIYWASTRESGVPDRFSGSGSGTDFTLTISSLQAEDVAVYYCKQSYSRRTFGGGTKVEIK
Protocol: as §1

T1 sequence (VH, as listed by the source limits assumed, chain 1 of 2): as the sequence (VH, as listed by the source limits assumed, chain 1 of 2) above
T1 sequence (VL, as listed by the source limits assumed, chain 2 of 2): as the sequence (VL, as listed by the source limits assumed, chain 2 of 2) above

Binder	Kd (ADI-22523 Fab) [nM]	Kd (ADI-22523 IgG) [nM]
B1	12.5	2.99
B2	18.9	2.9

— patent US20250019439A1 (Adimab, published 2025)
